In patent publication US20180216133A1:

Tests used:
[1] = target: AAV8 capsid (vector) (adeno-associated virus 8); test: AVB Sepharose HiTrap column, purified vector mix AAV8+AAVhu37+AAVrh10; genome copies per fraction by real-time PCR
[2] = target: AAVhu37 capsid (vector AAV2/AAVhu37.TBG.EGFP.bGH) (adeno-associated virus hu37); test: as above
[3] = target: AAV8 capsid (vector) (adeno-associated virus 8); test: AVB Sepharose HiTrap column, clarified culture supernatant, wild type vs SPAKFA mutant head-to-head; real-time PCR
[4] = target: AAVrh64R1 capsid (vector) (adeno-associated virus rh.64R1); test: as above
[5] = target: AAV9 capsid (vector, CB7.CI.ffluciferase.RBG) (adeno-associated virus 9); test: as above
[6] = target: AAV9-SPAKFA capsid mutant (NKDKLN→SPAKFA) (adeno-associated virus 9 (engineered)); test: as above
[7] = target: AAV8-SPAKFA capsid mutant (NQSKLN→SPAKFA) (adeno-associated virus 8 (engineered)); test: as above
[8] = target: rh.64R1-SPAKFA capsid mutant (NQAKLN→SPAKFA) (adeno-associated virus rh.64R1 (engineered)); test: as above
[9] = target: AAVrh64R1 capsid (vector) (adeno-associated virus rh.64R1); test: AVB Sepharose HiTrap column, purified vector mix AAVrh64R1+AAVrh10; genome copies per fraction by real-time PCR
[10] = target: AAV3B capsid (vector AAV2/3B.CB7.CI.ffluciferase.RBG) (adeno-associated virus 3B); test: AVB Sepharose HiTrap column, AVB.C (1 M NaCl) wash fraction; real-time PCR
[11] = target: AAV3B-NKDKLN capsid mutant (SPAKFA→NKDKLN) (adeno-associated virus 3B (engineered)); test: as above
[12] = target: AAVrh10 capsid (vector AAV2/AAVrh10.CMV.PI.Cre.RBG) (adeno-associated virus rh10); test: AVB Sepharose HiTrap column, purified vector mixes; genome copies per fraction by real-time PCR (average of two runs)
[13] = target: AAV3B capsid (vector AAV2/3B.CB7.CI.ffluciferase.RBG) (adeno-associated virus 3B); test: AVB Sepharose HiTrap column, clarified culture supernatant, AAV3B vs AAV3B-NKDKLN head-to-head; real-time PCR
[14] = target: AAV3B-NKDKLN capsid mutant (SPAKFA→NKDKLN) (adeno-associated virus 3B (engineered)); test: as above
[15] = target: AAV3B capsid (vector AAV2/3B.CB7.CI.ffluciferase.RBG) (adeno-associated virus 3B); test: AVB Sepharose HiTrap column, DPBS wash fraction; real-time PCR
[16] = target: AAV3B-NKDKLN capsid mutant (SPAKFA→NKDKLN) (adeno-associated virus 3B (engineered)); test: as above
[17] = target: AAV3B capsid (vector AAV2/3B.CB7.CI.ffluciferase.RBG) (adeno-associated virus 3B); test: AVB Sepharose HiTrap column, clarified AAV3B product; genome copies per fraction by real-time PCR
[18] = target: AAV3B capsid (vector AAV2/3B.CB7.CI.ffluciferase.RBG) (adeno-associated virus 3B); test: AVB Sepharose HiTrap column, unbound vector in flow-through; real-time PCR
[19] = target: AAV3B-NKDKLN capsid mutant (SPAKFA→NKDKLN) (adeno-associated virus 3B (engineered)); test: as above

## AVB Sepharose High Performance affinity resin ligand: 14kD fragment from a single chain llama antibody expressed in yeast (VHH)
[1]
  percent of loaded vector genome in the elution fraction: 20%
[2]
  percent of loaded vector genome in the elution fraction: 82%
[3]
  percent recovery of loaded vector in the elution fraction (of total fractions): 30%
[4]
  percent recovery of loaded vector in the elution fraction (of total fractions): 18%
[5]
  percent recovery of loaded vector in the elution fraction (of total fractions): 0.6%
[6]
  percent recovery of loaded vector in the elution fraction (of total fractions): 51%
[7]
  percent recovery of loaded vector in the elution fraction (of total fractions): 93%
[8]
  percent recovery of loaded vector in the elution fraction (of total fractions): 91%
[9]
  percent of loaded vector genome in the elution fraction: 22%
[10]
  percent of vector genomes in wash 2 (W2) fraction: 0.3%
[11]
  percent of vector genomes in wash 2 (W2) fraction: 4.6%
[12]
  percent of loaded vector genome in the elution fraction: 84%
[13]
  elution fraction yield: 98%
[14]
  elution fraction yield: 87%
[15]
  percent of vector genomes in wash 1 (W1) fraction: 0%
[16]
  percent of vector genomes in wash 1 (W1) fraction: 0.1%
[17]
  percent of vector genomes recovered in the elution fraction: 98%
[18]
  percent of vector genomes in flow-through (FT) fraction: 1.3%
[19]
  percent of vector genomes in flow-through (FT) fraction: 8.2%
